Results on 13 sequences are retold here after the supplement of paper PMC9170038.

In the data set the test system is MS2 coat protein. Kind of data set: apparent KD of MS2 coat protein; designed switch direction (-1 OFF switch, 1 ON switch): 1; higher = weaker reporter binding. The procedure, abridged:
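Each step of the titration lasted 0.8–1.5 h at the lowest concentration and 10–20 min at the highest. The protein, SNAP-549-labelled MS2 coat protein, went from 0.7 or 1.5 nM doubling to 3 µM over RNA switches transcribed on Illumina chips by stalled E. coli RNA polymerase. Normalised cluster fluorescence was curve-fitted, and the per-design median over clusters is given as apparent KD.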

[1] abbreviates: input ligand: microRNA oligo, concentration not stated.
Where [2] appears, read: Eterna round: R95, input ligand: FMN 200 uM.
Setting [3] is: Eterna round: R95, input ligand: microRNA oligo, concentration not stated.
[4] abbreviates: Eterna round: R95, input ligand: none.

Take “AGAAGACAUGAGGAUCACCCAUGUACCUCAUAAGGAGAGAGCGAGGAUAUGUAGAGAGAGAGGGAGCAGAAGGUGUGGGAGGAA [Default title] (Eterna round: R96, puzzle: Same State NG 3)”: the “apparent KD of MS2 coat protein” value is 283 nM (input ligand: FMN 200 uM), 192 nM under setting [1] and 262 nM (input ligand: none).
As to “AGAAUACAUGAGGAUCACCCAUGUCAACGUAGUCGAGGAUAUGGGCAGCCGUGAGGCGUACUAGAAGGCGAAGAGA [Mat - Same State 1 - Mod of JL - D6] (puzzle: Same State 1)”, the “apparent KD of MS2 coat protein” value under setting [2] was found to be 99.8 nM, the “apparent KD of MS2 coat protein” value under setting [3] stood at 437 nM and the “apparent KD of MS2 coat protein” value under setting [4] turned out to be 280 nM.
In the same order, the values of “AGAGAACAUGAGGAUCACCCAUGUAGGAUGGGCAUAGGAUAUAGAGGAAUGAGGGAGGAGCUAGAAGGAUGAUGGA [JR_SS1_Sub078] (puzzle: Same State 1)” are 110 nM, 192 nM and 145 nM.
In the same order, the values of “AGAGCCGGCACUGAGGAUAUUCAUAUUAAAACAUGAGGAUCACCCAUGUAGGCCAGAAGGCCUUGGGAGAAGGCAGGUCGGCUCG [Mat - Same State 2 - Mod of UCT - D57] (puzzle: Same State 2)” are 23.5 nM, 244 nM and 350 nM.
In the same order, the values of “AGAUAGUGUGGAAAGGAUAUACUGUUGAGGACAUGAGGAUCACCCAUGUGGUAGAGGAGGUAAGGGUAGAAGGUUCGGGAUUGGU [JR_SS@_Sub019] (puzzle: Same State 2)” are 32.6 nM, 34.5 nM and 47.1 nM.
With “AGAUCAUGACGAGGAUAUGCCACAUGAGGAUCACCCAUGUAUGUGGUAGGACGCGUACGUCCAAAGCAGAAGGCGUCGUGGUCA [JL SSNG2 1.01] (Eterna round: R96, puzzle: Same State NG 2)”, the “apparent KD of MS2 coat protein” value (input ligand: FMN 200 uM) was found to be 17.2 nM, the “apparent KD of MS2 coat protein” value under setting [1] amounted to 28.5 nM and the “apparent KD of MS2 coat protein” value (input ligand: none) worked out at 55.5 nM.
In the same order, the values of “AGAUCAUGACGAGGAUAUGGUACAUGAGGAUCACCCAUGUAUGUACCACGACGGAAACGUCGAAUCCAGAAGGCGUCAUGAUCA [Mat - Same State NG 2 - JL mod - D24] (Eterna round: R96, puzzle: Same State NG 2)” are 30.5 nM, 109 nM and 130 nM.
In the same order, the values of “AGAUCAUGACGAGGAUAUGGUACAUGAGGAUCACCCAUGUAUGUACUAUAACCCGAAUGAGGAAUCCAGAAGGCGUCGUGGUCA [JL SSNG2 1.13] (Eterna round: R96, puzzle: Same State NG 2)” are 24.4 nM, 56.3 nM and 93 nM.
In the same order, the values of “AGAUGUUAAUCAGGAUAUGGGCACAUGAGGAUCACCCAUGUAACGUAGAUACGAUGUGGUCAAGUCUAGAAGGGAUGGCUAACA [SameState NG2 #79] (Eterna round: R96, puzzle: Same State NG 2)” are 49.9 nM, 68.2 nM and 90.7 nM.
In the case of “AGAUGUUAAUUAGGAUAUGGACACAUGAGGAUCACCCAUGUAACGUAGAUACGAUGUGGUCAAGUCUAGAAGGGAUAGCUAACA [SameState NG2 #76] (Eterna round: R96, puzzle: Same State NG 2)”, the “apparent KD of MS2 coat protein” value stood at 39.9 nM (input ligand: FMN 200 uM), 35.2 nM under setting [1] and 40.3 nM (input ligand: none).
In the case of “AGCCGAGACACAGGAUAUAGAUGUCUACAUGAGGAUCACCCAUGUAGCAACACGUGGUAGUGAUUCUAGAAGGGUGCUCGGCGC [Omei SS(NG)2 Cv10] (Eterna round: R96, puzzle: Same State NG 2)”, the “apparent KD of MS2 coat protein” value by setting is: (input ligand: FMN 200 uM) 13.1 nM; under setting [1], 20.5 nM; (input ligand: none) 28.7 nM.
In the same order, the values of “AGCCUGAGUCGAGGAUAUUAUGGAUCCUCUAAUACAUGAGGAUCACCCAUGUAAUUAAUUAUACAUGAGAAGGCGACUCAGGCA [SSNG2/12-A3] (Eterna round: R96, puzzle: Same State NG 2)” are 98.7 nM, 69.4 nM and 25.5 nM.
For “AGCGCGAUCUCGCAGGAUAUCCACAUUCCUACAUGAGGAUCACCCAUGUCGCUGCAGGAUAUUAGGGAGAAGGGUGAUGUCGCGC [Arxeinor] (puzzle: Same State 2)”, the “apparent KD of MS2 coat protein” value came to 21.4 nM under setting [2], 32.6 nM under setting [3] and 34.8 nM under setting [4].
